# According to US9808503B2, “Allergen peptide fragments and use thereof for treatment of birch pollen allergies” (ANERGIS S.A., priority 2003, dated 2017):
# Legend:
# [1] = system: bee venom (BV) hypersensitive patients; test: Intradermal (ID) skin tests; format: in vivo, human; conditions: for immediate allergic reaction to intradermal injection: representative patient of peptide group (FIG. 5), 1 μg/ml each OPF, 0.01 μg/ml native PLA2
# Experimental: Skin testing: ID tests with BV, PLA2 and peptides were performed as described in Müller et al., Allergy 48(14):37-46, 1993. Concentrations tested ranged from 10^−3 μg/ml to 1 μg/ml (10-fold dilution series). […] The 0.1 μg/ml concentration was defined as the end-point concentration (EPC), as higher concentrations of BV and PLA2 may induce non specific toxic reactions. See Müller et al., J. Allergy Clin. Immunol. 96:395-402, 1995.
# IgE = test: In vitro IgE binding, dot blot analysis; design: species or system human; conditions: 1 μg spotted; control and peptide groups; order: OPF90-134, then OPF1-60
# Experimental: Immunoblotting and dot blot analysis: Anti-BV or -PLA2 immunoblots were processed as described in Kettner et al., Clin. Experiment. Allergy 29:394-401, 1999. For dot blot analysis, 1 μg of whole BV, PLA2, OPFs or human albumin was diluted ¼ in DMSO, spotted on PVDF membranes and dried for 30 min. at 37° C. After blocking in non-fat milk 5%, further steps were performed as described in Kettner et al., Clin. Experiment. Allergy 29:394-401 1999. Dot densities were analyzed by scanning densitometry using an Advanced American Biotechnology scanner, Fullerton, Calif.
Substance,immediate allergic reaction to intradermal injection [1],IgE binding to the peptide (order among the three OPFs) (IgE),"ID tests ([1]; day 0, all patients in OPF and control group)"
"OPF90-134: PLA2 fragment amino acid sequence (45 aa), C-terminal overlapping peptide fragment of Apis mellifera PLA2 (LIDTKCYKLEHPVTGCGERTEGRCLHYTVDKSKPKVYQWFDLRKY)",absence of immediate allergic reaction,higher level,
"phospholipase A2 [native PLA2, reference compound]",positive,,positive
"OPF47-99: PLA2 fragment amino acid sequence (53 aa), internal overlapping peptide fragment of Apis mellifera PLA2 (KHGLTNTASHTRLSCDCDDKFYDCLKNSADTISSYFVGKMYFNLIDTKCYKLE)",absence of immediate allergic reaction,undetectable,
"OPF1-60: PLA2 fragment amino acid sequence (60 aa), N-terminal overlapping peptide fragment of Apis mellifera PLA2 (IIYPGTLWCGHGNKSSGPNELGRFKHTDACCRTHDMCPDVMSAGESKHGLTNTASHTRLS)",absence of immediate allergic reaction,,
